Measurements from patent CN115368461A (JIANGSU HENGRUI MEDICINE CO; SHANGHAI HENGRUI …, dated 2022).

Experiments:
[1] = target: T1, TROP2 on FaDu cells (high huTROP2 expression) and SK-OV-3 cells (low TROP2 expression) (human, UniProt P09758 27-323); assay: cell-based or functional assay
T1 sequence (looked up): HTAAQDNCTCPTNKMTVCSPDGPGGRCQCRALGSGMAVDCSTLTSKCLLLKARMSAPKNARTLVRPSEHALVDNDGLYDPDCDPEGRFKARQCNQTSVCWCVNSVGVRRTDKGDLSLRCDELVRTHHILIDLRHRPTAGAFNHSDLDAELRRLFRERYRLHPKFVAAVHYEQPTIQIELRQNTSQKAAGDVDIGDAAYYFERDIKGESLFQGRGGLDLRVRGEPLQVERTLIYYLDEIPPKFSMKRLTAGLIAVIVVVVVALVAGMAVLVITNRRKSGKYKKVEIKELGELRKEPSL

[2] = target: T2, 人TROP2-his (huTROP2-His), ACRO TR2-H5223 (human, UniProt P09758 27-274); assay: Biacore T200 SPR; antibody captured on Protein A chip, huTROP2-his as analyte, 1:1 model
T2 construct: Bought His-tagged human TROP2 protein (ACRO)
T2 sequence: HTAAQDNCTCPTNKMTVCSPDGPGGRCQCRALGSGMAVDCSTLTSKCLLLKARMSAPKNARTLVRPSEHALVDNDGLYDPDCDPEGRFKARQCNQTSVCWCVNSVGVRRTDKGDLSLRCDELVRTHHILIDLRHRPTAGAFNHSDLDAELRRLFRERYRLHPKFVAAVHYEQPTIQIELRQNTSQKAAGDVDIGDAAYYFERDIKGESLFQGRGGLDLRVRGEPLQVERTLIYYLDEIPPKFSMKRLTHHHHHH

[3] = target: T2, 人TROP2-his (huTROP2-His), ACRO TR2-H5223; assay: ForteBio Octet BLI; antibody on Protein A sensor, 100nM antigen
[4] = target: T3, CHO细胞表面表达的人TROP2 (huTROP-2 CHO-K1 cells) (human, UniProt P09758 27-323); assay: cell ELISA on fixed huTROP-2 CHO-K1 cells
T3 construct: Untagged human TROP2 stably expressed on CHO-K1 cells; The cells were fixed with paraformaldehyde in the cell ELISA; also called CHO-K1/hTROP2
T3 sequence: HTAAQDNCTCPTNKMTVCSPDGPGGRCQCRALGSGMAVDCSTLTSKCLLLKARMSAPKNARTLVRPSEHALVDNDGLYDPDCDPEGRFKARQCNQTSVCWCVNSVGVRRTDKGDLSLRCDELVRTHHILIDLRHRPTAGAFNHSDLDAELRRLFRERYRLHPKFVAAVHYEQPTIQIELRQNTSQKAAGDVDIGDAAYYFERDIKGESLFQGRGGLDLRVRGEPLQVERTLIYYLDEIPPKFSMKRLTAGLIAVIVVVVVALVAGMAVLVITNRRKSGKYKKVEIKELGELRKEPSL

Row | IC50(nM), DT3C内吞杀伤实验 on FaDu cells [1] | Imax(%), DT3C内吞杀伤实验 on FaDu cells [1] | Kd [2] | binding result [3] | binding result [4] | Binder
1 | 0.0094 nM | 100% | 202 pM |  |  | hu29-12 (antibody, human IgG1, kappa, V domains shown, also called mAb29 VH4 + VL3) VH: EVKLVESGGGLVQPGGSLRLSCAASGFSFSDYYMYWVRQAPGKGLEWVANIDNVGDTTYYPDTVKGRFTISRDNAKNSLYLQMNSLRAEDTAVYYCARHDPLTGPPFFAMDYWGQGTTVTVSS VL: DIQMTQSPSSLSASVGDRVTITCKASQGINQYIAWYQQKPGKGPKLLIHYTSTLQPGVPSRFSGSGSGRDYTFTISSLQPEDIATYYCLQYDNLWTFGGGTKVEIKR
2 |  |  |  | binds | binds | mAb53 (antibody, V domains shown, Murine hybridoma monoclonal antibody; the murine constant regions are not; also called 鼠源mAb53; 鼠源抗体mAb53) VH: QVQLQQPGAELVKPGASVKMSCKASGYTFTSYWITWVKQRPGQGLEWIGNIHPGSSTTNYNEKFKSKATLTVHTSSSTVYMQLTSLTSEDSAVYYCAREVGDYWGQGTSVTVSS VL: DILLTQSPAILSVSPGERASFSCRASQIIGTSIHWYQQRTNGSPRLLIKYVSESISGIPSRFSGSGSGTDFTLSINSVESEDIADYYCQQSHSWPFTFGGGTKL
3 |  |  |  | binds | binds | mAb29 (antibody, V domains shown, Murine hybridoma monoclonal antibody; the murine constant regions are not; In the cell ELISA it was detected with goat anti-mouse IgG-HRP; also called 鼠源mAb29; 鼠源抗体mAb29) VH: EVKLVESGGDLVQPGGSLKLSCAASGFSFSDYYMYWVRQTPEKRLEWVANIDNGGDTTYYPDTVKGRFTISRDNAKNTLYLQMSRLKSEDTAMYYCARHDPLTGPPFFAMDYWGQGTSVTVSS VL: DIQMTQSPSSLSASLGGKVTISCKASQGINQYIAWYQLKPGKGPRLLIHYTSTLQPGVPSRFSGSGSGRDYSFSISNLEPEDIASYYCLQYDNLWTFGGGTKLEIK
4 | 0.0643 nM | 97.5% | 691 pM |  |  | hu53-02 (antibody, human IgG1, kappa, V domains shown, also called mAb53 VH1 + VL2) VH: EVQLVQSGAEVKKPGASVKVSCKASGYTFTSYWITWVRQAPGQGLEWMGNIHPGSSTTNYNEKFKSRVTMTRDTSTSTVYMELSSLRSEDTAVYYCAREVGDYWGQGTTVTVSS VL: EIVLTQSPATLSLSPGERATLSCRASQIIGTSIHWYQQKPGQAPRLLIKYVSESISGIPARFSGSGSGTDFTLTISSLEPEDFAVYYCQQSHSWPFTFGGGTKVEIKR
5 | 0.069 nM | 97.7% |  |  |  | hRS7 (antibody, human IgG1, kappa, V domains shown) VH: QVQLQQSGSELKKPGASVKVSCKASGYTFTNYGMNWVKQAPGQGLKWMGWINTYTGEPTYTDDFKGRFAFSLDTSVSTAYLQISSLKADDTAVYFCARGGFGSSYWYFDVWGQGSLVTVSS VL: DIQLTQSPSSLSASVGDRVSITCKASQDVSIAVAWYQQKPGKAPKLLIYSASYRYTGVPDRFSGSGSGTDFTLTISSLQPEDFAVYYCQQHYITPLTFGAGTKVEIKR
6 |  |  | 17000 pM |  |  | TINA (antibody, human IgG1, kappa, V domains shown, Control antibody built according to WO2015098099A1; also called TINA抗体; 阳性对照抗体TINA) VH: QVQLVQSGAEVKKPGASVKVSCKASGYTFTTAGMQWVRQAPGQGLEWMGWINTHSGVPKYAEDFKGRVTISADTSTSTAYLQLSSLKSEDTAVYYCARSGFGSSYWYFDVWGQGTLVTVSS VL: DIQMTQSPSSLSASVGDRVTITCKASQDVSTAVAWYQQKPGKAPKLLIYSASYRYTGVPSRFSGSGSGTDFTLTISSLQPEDFAVYYCQQHYITPLTFGQGTKLEIKR
